Measured values as given in article PMC3429642.

Molecular target: Full-length DEMETER (DME) fused with the GAL4 DNA binding domain (Arabidopsis) (UniProt Q8LK56)
Assay: two-hybrid

Chain of UniProt Q8LK56 (Q8LK56 whole entry, the tested form may be a part): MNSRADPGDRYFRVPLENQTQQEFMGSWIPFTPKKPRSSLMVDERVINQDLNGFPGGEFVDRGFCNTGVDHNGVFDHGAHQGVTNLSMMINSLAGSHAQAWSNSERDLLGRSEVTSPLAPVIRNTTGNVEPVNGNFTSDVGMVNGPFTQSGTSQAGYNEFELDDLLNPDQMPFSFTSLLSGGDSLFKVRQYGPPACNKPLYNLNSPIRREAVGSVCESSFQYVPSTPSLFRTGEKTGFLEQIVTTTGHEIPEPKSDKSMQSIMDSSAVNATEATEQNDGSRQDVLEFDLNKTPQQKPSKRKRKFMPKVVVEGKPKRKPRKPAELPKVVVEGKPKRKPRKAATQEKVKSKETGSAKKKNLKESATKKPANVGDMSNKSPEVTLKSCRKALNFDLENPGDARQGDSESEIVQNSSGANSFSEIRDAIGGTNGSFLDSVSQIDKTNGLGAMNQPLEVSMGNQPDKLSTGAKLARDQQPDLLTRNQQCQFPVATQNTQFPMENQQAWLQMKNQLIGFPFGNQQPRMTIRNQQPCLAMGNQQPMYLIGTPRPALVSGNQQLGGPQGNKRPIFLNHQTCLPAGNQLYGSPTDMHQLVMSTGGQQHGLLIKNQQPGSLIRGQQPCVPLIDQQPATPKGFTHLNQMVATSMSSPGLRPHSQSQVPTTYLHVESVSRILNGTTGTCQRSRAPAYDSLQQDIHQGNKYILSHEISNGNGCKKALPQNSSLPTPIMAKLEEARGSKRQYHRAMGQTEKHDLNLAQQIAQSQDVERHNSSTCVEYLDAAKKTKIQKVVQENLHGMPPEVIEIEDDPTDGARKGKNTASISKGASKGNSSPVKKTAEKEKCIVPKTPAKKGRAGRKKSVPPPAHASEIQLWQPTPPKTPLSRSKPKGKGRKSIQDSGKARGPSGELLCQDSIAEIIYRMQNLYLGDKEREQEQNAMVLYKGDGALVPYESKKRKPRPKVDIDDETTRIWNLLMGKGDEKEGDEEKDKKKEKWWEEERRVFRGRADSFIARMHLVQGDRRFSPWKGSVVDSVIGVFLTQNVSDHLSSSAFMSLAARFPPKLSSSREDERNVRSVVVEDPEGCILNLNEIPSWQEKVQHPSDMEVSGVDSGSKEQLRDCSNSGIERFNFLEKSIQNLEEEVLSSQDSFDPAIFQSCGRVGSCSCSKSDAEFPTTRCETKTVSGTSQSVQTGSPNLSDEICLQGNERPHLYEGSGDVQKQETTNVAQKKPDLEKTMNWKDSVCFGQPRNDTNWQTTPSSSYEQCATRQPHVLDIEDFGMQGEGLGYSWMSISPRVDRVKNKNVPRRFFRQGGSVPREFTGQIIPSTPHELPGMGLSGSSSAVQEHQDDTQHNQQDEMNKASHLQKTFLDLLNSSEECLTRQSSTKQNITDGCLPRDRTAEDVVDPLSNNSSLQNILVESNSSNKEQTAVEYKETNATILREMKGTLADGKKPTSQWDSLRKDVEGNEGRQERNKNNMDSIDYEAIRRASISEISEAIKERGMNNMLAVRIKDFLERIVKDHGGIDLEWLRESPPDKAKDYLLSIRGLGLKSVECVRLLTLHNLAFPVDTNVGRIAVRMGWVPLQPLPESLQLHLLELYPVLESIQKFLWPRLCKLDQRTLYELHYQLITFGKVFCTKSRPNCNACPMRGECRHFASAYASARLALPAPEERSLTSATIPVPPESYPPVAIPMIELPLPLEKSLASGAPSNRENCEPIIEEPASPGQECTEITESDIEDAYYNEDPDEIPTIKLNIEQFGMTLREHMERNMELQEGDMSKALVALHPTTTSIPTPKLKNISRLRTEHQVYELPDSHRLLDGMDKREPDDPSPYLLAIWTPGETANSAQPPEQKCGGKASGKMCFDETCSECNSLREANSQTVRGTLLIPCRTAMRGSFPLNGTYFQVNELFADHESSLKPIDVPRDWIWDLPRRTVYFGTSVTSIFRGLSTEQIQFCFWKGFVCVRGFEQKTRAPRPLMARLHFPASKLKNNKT

- β-galactosidase activity: 1.67 units
Substance: Histone H1.2 fused with the GAL4 activation domain (natural protein)
